According to PMC6649833:

T1: N15 Cro (bacteriophage N15, UniProt Q37964 1-71)
T1 sequence: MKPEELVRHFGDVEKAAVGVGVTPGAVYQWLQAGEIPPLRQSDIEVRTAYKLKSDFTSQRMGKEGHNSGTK

T2: N15 Cro-His6 (bacteriophage N15, UniProt Q37964 1-71)
T2 sequence: T1 sequence

B1: N15 symmetric consensus OR 16 bp (dsDNA)
DNA 1: TTTATAGCTAGCTATAA
DNA 2: TTTATAGCTAGCTATAA
B2: N15 OR3 28 bp (dsDNA)
DNA 1: GCAAAATTATAGCCAGCTATAAAGAGCG
DNA 2: CGCTCTTTATAGCTGGCTATAATTTTGC

Experiments:
N15 Cro [1] = biological target: T1, N15 Cro; test: X-ray crystallography
N15 Cro [2] = biological target: T1, N15 Cro; test: EMSA
N15 Cro-His6 = biological target: T2, N15 Cro-His6; test: EMSA

| Binder | binding result (N15 Cro [1]) | Kd (N15 Cro [2]) [nM] | Kd (N15 Cro-His6) [nM] |
| --- | --- | --- | --- |
| B1 | binds | – | – |
| B2 | – | 90 ± 7 | 91 ± 11 |
